# From the DeepSol protein solubility set
# Assay: soluble on expression in E. coli; label from the status in PepcDB or PDB records
row,Sequence,soluble on expression in E. coli
1,MSLDKRYIIAEIKVSIVKTQSAGADYTDHAAGHWINDTIIANPMSVYNDFQHSRSAWGMDVLKGIFIEVTTESGHQGYATAYGGYISSWIIKNHLNRFLIGADARNLSKLYDQMYRASIPYSGQNGVVINTIAGIDLALWDLIGKVRQEPVYMMIGGKVREKLQTYVTGPEAKLAQDWGHVGSKIPLPYGPGDGIVGLKKNQEYIMETRKQVGSDYRLMVDCYMSLDVPYAIDLANAVKEANLYWIEEALPPHDLESHKHIKDACPWQKWTTGEHTNSRYGFRNLIRDRSVDILQPDLTLCGMTETLRIAAMASAYDITVIPHCSGVYAYNFGIASTLTPFNEFINLHPKATEVVPIFGKMFTNEPVPIKGEVTLTDLPGFGAELNKEVELEEIEGHHHHHH,soluble
2,MGSDKIHHHHHHMRISLSTGTLFTFPLGKVMRIAREAGFDGVELIINQDFQKVNCRKLIEELAEILPINSIHAPFMPLDGWGGPIDSLERCVELAAGAGIPLVNFHPPSWMGFEIGFWRWLYRVMDFQKEVGRETVIVTLENMPWVGTRFRVNPHILSNTEKLIEFIQERNLYMTFDTTHMGSGKANFINDFYHCYNSGRIRNIHFSDYGHGREHLIPGHGILPLTRFLNHLRSTDYADTLTLELSPEEFPRDERIIVESLREILQYLRRETSPA,not soluble
3,MSRYCSQCGKSRKACICQWIVPLASGVELIILQHTSEAHRPLGTARILNLSLKNCTCLIGEDFSDDAQLNALLTDEAYQHFILYPSEQSQCLSDIACTESERTRKTRLILLDGTWKKAYKMWQLSTNLHTLTTVKLPEDLQGHYTIRKAPSDNSLSTVEAGFYALSLLEPDNDFSPLLNAFDRMIEFQIAQMPPGVFEKNYLNKLEHHHHHH,not soluble
4,TPMRSPIIWINGPFGVGKTHTAHTLHERLPGSFVFEPEEMGQALRKLTPGFSGDPQEHPMWIPLMLDALQYASREAAGPLIVPVSISDTARHRRLMSGLKDRGLSVHHFTLIAPLNVVLERLRRDGQPQVNVGTVEDRLNELRGEQFQTHIDTAGLGTQQVAEQIAAQVGLTLAPPPQGALHW,soluble
5,MGSDKIHHHHHHMSVPTTMFRLTGRDYPPAKLSHASLIIIDAQKEYLSGPLKLSGMDEAVANIARLLDAARKSGRPIIHVRHLGTVGGRFDPQGPAGQFIPGLEPLEGEIVIEKRMPNAFKNTKLHETLQELGHLDLIVCGFMSHSSVSTTVRRAKDYGYRCTLVEDASATRDLAFKDGVIPAAQIHQCEMAVMADNFACVAPTASLI,not soluble
6,RGNLGQSQKVLIEFVSANPTGPLHVGHGRGAAFGATLGNVLKAAGYDVTLEYYVNDAGRQMNILAVSVWLRYLELAGEPIVFPANGYKGQYVYEIAQEIWSEQGNQFVHPWISVVENLPADEPEGGDKETYIDAIIARAQSLLGKDGFANFHQHALKTVLDDIKDDLQAFGVRFDSWFSEQSLFEDGSIEKGIQALKDRGHTYEREGALWFRATDFGDEKDRVLVRANGQTTYFASDVAYHWNKYDRGFDRVIDIFGADHHGYVTRIKTAVKALGHDESALDVILVQFAILYRGGDRVQMSTRSGSFVTLRELREEVGNDAARYFYVARKPEQHMDFDLDLAKSESSDNPVYYIQYAHARICSVLRQLKERGLKWDKDMGL,not soluble
7,MYSANPTLGYYVPPLDVNNLTDQQTAISIEHLSLYYQQSRALSDISMRIPKGQVTAFIGPSGCGKSTLLRCINRMNDLVEGTRVEGEVKLHGKNIYHPDVDVPTLRRRVGMVFQRPNPFPKSIYENVVYGLRLQGIKNSRALDDAAEQSLRAAALWDEVKHRLHENAFGLSGGQQQRLVIARAIAIEPEVLLLDEPTSALDPISTLTIEELIHDLKTKYTVVIVTHNMQQAARVSDHTAFIHMGKLIEYADTDSIFTSPLKKQTEDYITGRYG,not soluble
8,KKMREEGVHEGCMEQIYRMFSQRLYKEDGSAAEVDDMNRLRLDDWELREDIQQHCRELWPQITTENLKELTDYVEYKEEFLKLFGFGVEGVDYEADVNPAVETDFIQI,not soluble
9,MTDTNTLLVTSLEEGIGKTAITLALATRAHDAGYDVGYMKPKGTRLRSAVGKTRDEDPMLARELLDLETDLHDMEPIVYSPTFIQEAIRGREDPDDLRERLQEGIETCSDGTDMLLVEGSSDLATGSIVDLTDIDIAELLDARVLLVTGYDTPSDTDEILSAAEAIGDRLDGVLFNGVTDATVDELADDVVPFLEGEGIPVHGILPRDRSLAGVTVADLARNLGADILTGDANTDVHVERFSVGAMSGSSALERFRRTRDAVVVTGGDRSEVQTAALEASGINALLLTGGFQPASAVIGQAAEKNVPVLSVQSDTRTTIDRVEEVLRTGQTRNEATVDRMRTLLDDGVDVESLLSVDLLEHHHHHH,soluble
10,MARLARFWDSLENENLFDIVPQPPKSTVTRFHQQWLSSLANARDDELQTILYAKPLLPTPESIVQLPDEEYYGAKKISVGYR,not soluble
11,MGSDKIHHHHHHMKRRILFIHNNLGGGGAEGALIEVLNHLDYNRYDVTLFLLYRTGDFIDRVPPQVHFKHEQFGRFFPGYKGKIAIRCGLRNMLLRCCAKRVFANEKYDTIVSFMESAPAKFHSYILDKGKRNITWVHCDLLNNHYTTGFFLTLKQEQKFYSRMDDVIFVSEDAKKNFSKLFGIDKGRVIYNIIDQRAICKRSKAVSSMPRHRTFTFVNVGSLKEIKRQDRIIETAALLKARGYDADFWLIGKGIWEERLKAQATALNVSDSVHFLGFQSNPYPYVAAADVFLMTSDSEGFPLVVAEAMCLGKAVISTRITGPMEMLGNGRYGILTGFSPEEIANSAISLIEDPKLLSSYQHLAYERSISYFDVNGVMTQIHDVIGN,not soluble
12,MSNDFTQAQAPPWRYGFLNLMRRVDVQLCTVPAGNTWQPRMEKFRLGQTPALTFAPREIASVGWQEGRLHISLYSLVLWGPNGPLPLHYTELARNRTESRR,not soluble
13,MGSDKIHHHHHHSQTRYFADKKVSKSKNIVAADKVTDKEKETETWTSIPQRAVAYQELTTYEDSNLTKSVGKIPAKTQLDIPEIVGKSFKLKTGKYISTDKKAVISDLTISRESINTTIYTDKSVNVFYNPVTTYDNQIMTNLSGTHQLSADKMAKTNWGTYYEVSLDNGQKGWVSENDISLENPKIKQVQALLNQKYNDKKYSIYVKELDDKFTAGVNQEQKMYSASLSKIPILYWTQKRLNEGLASLDDKLLYTPAINTFYGSYKPEGTGNLPKTADNKYYSLQDVINRTAKLSDNVGSNMLAYYETQEFNPNYQKEINRIAGQEWNPKERNASAQMVGRMLEALYNEGGASFNALFDTSFDDVKIRAGVPKNISVAHKIGGADTDNHDAAIVFASKPYLLVIETDGATDDEIKAISQDVYGVMK,not soluble
14,MAHHHHHHMKEYTGNRSVPTTIQNKKKSITEEINKSLHTQDSKNNQNNYEICLSDVSVSTISNSSGIDSDLYEEVIKKIKKEKKRKRKESKRDIYKEKVKYDKKESNSNDENKNDRGNEKDRKNNSDIENNSDSEYINDKEKDRKKRKHIDIDKKKRNKESHHHVNKKKDKNISTRKKRKYTSSLSSESYERRKDKKKKKEKYRNSESSYKSMVDENIPKDPFNPLLLAYEKKEKKKYRKNDEHNDLNDRWKHDRYENTSDDEDINIEKAYENSKPYFDPHEFPKILWKSKAGGVCVPQISDDKK,not soluble
15,MGTIKIVTDSSITIEPELIKALDITVVPLSVMIDSKLYSDNDLKEEGHFLSLMKASKSLPKTSQPPVGLFAETYENLVKKGVTDIVAIHLSPALSGTIEASRQGAEIAEAPVTVLDSGFTDQAMKFQVVEAAKMAKAGASLNEILAAVQAIKSKTELYIGVSTLENLVKGGRIGRVTGVLSSLLNVKVVMALKNDELKTLVKGRGNKTFTKWLDSYLAKNSHRPIAEIAISYAGEASLALTLKERIAAYYNHSISVLETGSIIQTHTGEGAFAVMVRYE,soluble
16,MNSEQADILDLLSGHTDDTTIERLAFECLLTNMTDDRVVSLMNILGWQGDFNCFAIGGVPSASLASTSLAIRKAVRDLGGEHVVIGTYGTFLLALACQMGAVTPEVTCTAVMPAFSEDEPLYLSPVRSGVAGASHALRETMFSLQAAPALSTPSRPLRADELLPERALLGDDYAREELYRNVYQVLRGENPDDPTYLTVSTFLKYGSSLENTAKELNVHPNTVRYRLKRAAETTGWDATDPRDAYVLTTALAIGRMRDR,soluble
17,MVRKLKTHEQKLLKKTDFMSWQVDQQGKQGDMLRKFYVKKREHYALYNTLAAKSREVADLIKNLSESDPFRSKCTEDMLTKFYAAGLVPTSDTLERIGKVTGASFARRRLPVVMRNIGMCESVKTASDLVEQGHVRIGTKLVTDPAFMVTRSSEDMITWTKASKIKKHVMDYNNTRDDFDLMD,not soluble
18,MGSDKIHHHHHHMKIFITGATGLIGSNLIPLLLEKEYQITALVRDMEKARHQLPNQVQLVKALSHYENFNDFDGVINLAGAPIFAQYWTAGYKTELINSRLNLTENLTALINNSNKPPHCFISASATGYYGDQGNNLITEKSLSGNQFTAQLCQQWENIALQANSRVCLLRTGMVFSEKGGALTKILPIYRYGVGGKLGTGKQFWAWISLQDMLQAILFLLENAQCEGAFNLVAPKPIQNKDFNCQLGAWLKRPYLATVPKFLLNLLLGERATLLLDSQNVIPQKLLEAGFHFSTPTFSDFLHSIKK,not soluble
19,GMSDPAGKPCIICVAITGSLPTKENNPAVPITLAEQVESTHEAFEAGASIAHCHVRDDEGRPTSDPDRFAALKEGLERHCPGMIVQLSTGGRSGAGQARGAMLPLCPDMASLSVGSNNFPTRVYENPPDLVDWLAAEMLKYDIKPEIEAFDLSHILQAKRMAGDGRLAGTPYVQFVMGVRNAMPADRDVFDYYIHTVRRLFGEDAPWCAAGIGPSQIVLNEWAISSGGHARTGLEDNVRLDRDRLAPSNAALVGRAVELCEKYERPVATWRQARQILGLRMV,soluble
20,MGSDKIHHHHHHMSHGAIKHHRHRGRVMYHLRVPESAEDLDAYYQFRWEMLRKPLHQPLGSERDAYDALAHHQTVVDEQGRLVAIGRLSINADNEAAIRFLAVHPDLRGKGLGTLLAITLESVARQEGVKRVVCSAREDAMDFFSKLGFVNQGEISAPQTTPVRHFLMIKPVATLDDILHRADWCGQLQQAWYDHIPLSEKMGVRISQYTGKKFITTMPEAGNQNPHHTLFAGSMFSLATLTGWGLIWLLLRERHLGGTIILADAHIRYSTPVSGRPSAIADLGSLSGDLDRLARGRKARVQLNVELFGDDNKGALFEGVYIVLPAQPDAPLEEGGSEVD,not soluble
21,MAHHHHHHMRMRPFTASTAATPTAAGAAPASSMSSPAPLRKARESATGSAGSYFLGSSTFSVYEEMARQLREEGWRRKTEAAIATADFILGDRFRIPYTLLRVERMARSSWFGGTRWVNYFEGSHRLTLKAAMVQLMKEVDTHWATWLPESYAVGGDQLKKADERRALLEALAAAGDDDAVWIVKPSSGAKGRHILLLRASAVPEWLERLPESSKSMYVVQRYVDRPLLLSNGRKFDIRVWALLVSPYSIYAYTQVSCRTASEPYDLSDITNTHVHLTNHCLQKDAAHFGEYEEENEMWLPQLQSYLTSIGKPADLLETRVLPAIKELLVRTLLAVMPEMAVPATEAYKCFQLFGYDMILTEEADVRLLEINGSPGVAERFLTPLVRSMRELLGAGPKDGTGSTTTTRNCDNTSHEGFSENGSSSNSGCASPTSASSSCPGRRRTSHAFSAATSATGATRNWRLEDEGFVLLWRRGDAVPPGLVDVC,not soluble
